Patent EP1257648B2 (AMGEN INC., dated 2016)
Several values for one entry are separate records, joined by “and”; a condition that tells them apart may be missing. Identical values can stand only once.

Molecular target: T1, human OPGbp[143-317] (human, UniProt O14788 143-317)
T1 sequence (looked up): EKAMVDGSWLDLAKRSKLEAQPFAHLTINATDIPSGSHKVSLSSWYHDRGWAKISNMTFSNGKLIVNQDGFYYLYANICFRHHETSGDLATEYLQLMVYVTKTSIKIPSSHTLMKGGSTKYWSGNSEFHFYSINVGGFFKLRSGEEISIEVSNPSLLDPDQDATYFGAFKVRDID
Assay: cell-based or functional assay

B1: human OPG [22-194]-Fc (Fc fusion, UniProt O00300 22-194, looked up, not shown: a dimerising Fc or GST)
chain: ETFPPKYLHYDEETSHQLLCDKCPPGTYLKQHCTAKWKTVCAPCPDHYYTDSWHTSDECLYCSPVCKELQYVKQECNRTHNRVCECKEGRYLEIEFCLKHRSCPPGFGVVQAGTPERNTVCKRCPDGFFSNETSSKAPCRKHTNCSVFGLLLTQKGNATHDNICSGNSESTQK
  IC50, RAW cell assay (TRAP), positive control: 0.033 µg/mL

B2: Fab "AT" (Fab, V domains shown)
VH: QVQLVQSGAEVRKPGASVKVSCKASGYDFSNYAIHWVRQAPGQRLEWMGWINAGNGNTKFSQKFQGRITVTRDTAASTAYMELRSLRSEDTAVYYCARDSSNMVRGIIIAYYFDYWGQGTLVTVSS
VL: EIVMTQSPSSLSASVGDRVTITCRASQSISRYLNWYQLKPGKAPRLLIYGASSLQSGVPSRFSGSGSGAEFTLTISSLQPEDIATYYCQHTRAFGQGTKVEIKR
  IC50, RAW cell assay (TRAP): 15 µg/ml and 300 nM
  IC50, murine bone marrow osteoclast formation assay (TRAP, pNPP): 57.8 nM

B3: "AT" antibody (antibody, V domains shown)
VH: QVQLVQSGAEVRKPGASVKVSCKASGYDFSNYAIHWVRQAPGQRLEWMGWINAGNGNTKFSQKFQGRITVTRDTAASTAYMELRSLRSEDTAVYYCARDSSNMVRGIIIAYYFDYWGQGTLVTVSS
VL: EIVMTQSPSSLSASVGDRVTITCRASQSISRYLNWYQLKPGKAPRLLIYGASSLQSGVPSRFSGSGSGAEFTLTISSLQPEDIATYYCQHTRAFGQGTKVEIKR
  IC50, RAW cell assay (TRAP): 60.3 nM and 21.4 nM and 3 ug/ml and 9 ug/ml and 3.2 ug/ml and 20.1 nM
  IC50, bone marrow assay (TRAP): 2.35 µg/ml and 14.4 nM
  IC50, murine bone marrow assay (TRAP): 2.15 ug/ml and 14.4 nM and 1.85 ug/ml and 12.5 nM
